Measured values published in US20210214434A1.

Tests used:
[1] = molecular target: Fc receptors on the surface of the effector cells; assay: cell-based or functional assay
[2] = molecular target: HisTag hCD16aV receptor (R&D System) (human) (UniProt P08637); assay: BLI (Octet), HisTag hCD16aV on anti-Penta-HIS biosensors, 1/1 model; SD 4.0
[3] = molecular target: human CD32aR receptor on transfected HEK cells (HEK-CD32) (human) (UniProt P12318); assay: flow cytometry competition on HEK-CD32 cells, displacement of Rituxan-A488 (30 µg/ml)
Chain of human CD32aR receptor on transfected HEK cells (HEK-CD32) (human) (P12318 34-317 H167R limits assumed): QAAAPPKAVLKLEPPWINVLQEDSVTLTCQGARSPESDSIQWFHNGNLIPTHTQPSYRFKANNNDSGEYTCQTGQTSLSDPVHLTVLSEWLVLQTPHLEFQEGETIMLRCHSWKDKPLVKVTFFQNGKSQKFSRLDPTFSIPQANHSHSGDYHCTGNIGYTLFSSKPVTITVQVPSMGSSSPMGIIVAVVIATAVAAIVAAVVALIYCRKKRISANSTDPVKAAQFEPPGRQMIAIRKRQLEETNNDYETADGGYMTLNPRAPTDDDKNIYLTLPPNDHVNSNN

[4] = molecular target: human CD32aH receptor on transfected HEK cells (HEK-CD32) (human) (UniProt P12318); assay: as above
Chain of human CD32aH receptor on transfected HEK cells (HEK-CD32) (human) (P12318 34-317): as the sequence (P12318 34-317 H167R limits assumed) above, with R134H counted along it

[5] = molecular target: human FcRn receptor expressed by Jurkat cells (Jurkat-FcRn) (human) (UniProt P55899); assay: flow cytometry competition on Jurkat-FcRn cells, displacement of Rituxan-A488 (25 µg/ml), pH 6
[6] = molecular target: CD32b (UniProt P31994); assay: competition assay, protocol and competitor for CD32b not described
Chain of CD32b (P31994 43-310 limits assumed): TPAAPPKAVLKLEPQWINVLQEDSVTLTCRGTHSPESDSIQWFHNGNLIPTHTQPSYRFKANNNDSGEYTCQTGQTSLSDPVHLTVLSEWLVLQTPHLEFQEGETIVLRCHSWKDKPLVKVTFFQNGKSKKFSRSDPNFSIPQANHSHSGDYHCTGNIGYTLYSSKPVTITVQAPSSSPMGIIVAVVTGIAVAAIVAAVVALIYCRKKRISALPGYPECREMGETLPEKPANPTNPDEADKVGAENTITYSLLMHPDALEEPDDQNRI

[7] = molecular target: human CD64 receptor expressed by Jurkat cells (Jurkat-CD64) (human) (UniProt P12314); assay: cell-based or functional assay
Chain of human CD64 receptor expressed by Jurkat cells (Jurkat-CD64) (human) (P12314 16-374): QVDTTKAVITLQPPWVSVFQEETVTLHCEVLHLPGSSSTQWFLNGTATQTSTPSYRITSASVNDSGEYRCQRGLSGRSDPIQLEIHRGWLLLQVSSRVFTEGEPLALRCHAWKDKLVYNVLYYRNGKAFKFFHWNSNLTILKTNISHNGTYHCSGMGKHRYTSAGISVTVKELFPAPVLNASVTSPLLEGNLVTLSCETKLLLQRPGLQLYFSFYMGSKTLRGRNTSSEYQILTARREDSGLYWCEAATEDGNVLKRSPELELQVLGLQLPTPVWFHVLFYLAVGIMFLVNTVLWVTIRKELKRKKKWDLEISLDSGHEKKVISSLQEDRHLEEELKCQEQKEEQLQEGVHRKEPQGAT

[8] = molecular target: biotinylated human FcRn receptor (hFcRn), immobilized on Streptavidin Biosensors (human) (UniProt P55899); assay: BLI (Octet), biotinylated hFcRn on streptavidin biosensors, pH 6, 1/1 model; SD 1.94
[9] = molecular target: HisTag hCD32aH receptor (PX therapeutics) (human) (UniProt P12318); assay: BLI (Octet), HisTag hCD32aH on anti-Penta-HIS biosensors, 1/1 model; SD 114.3
Chain of HisTag hCD32aH receptor (PX therapeutics) (human) (P12318 34-217 limits assumed): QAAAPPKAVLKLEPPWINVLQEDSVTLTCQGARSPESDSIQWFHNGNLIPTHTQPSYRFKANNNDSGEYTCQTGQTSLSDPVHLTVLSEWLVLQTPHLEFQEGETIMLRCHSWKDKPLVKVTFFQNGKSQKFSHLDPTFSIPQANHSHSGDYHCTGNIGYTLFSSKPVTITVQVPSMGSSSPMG

[10] = molecular target: human CD16aH receptor on transfected Jurkat cells (Jurkat-CD16aH) (human) (UniProt P08637); assay: flow cytometry competition on Jurkat-CD16aH cells, displacement of mAb 3G8-PE (0.5 µg/ml)
Chain of human CD16aH receptor on transfected Jurkat cells (Jurkat-CD16aH) (human) (P08637 17-254): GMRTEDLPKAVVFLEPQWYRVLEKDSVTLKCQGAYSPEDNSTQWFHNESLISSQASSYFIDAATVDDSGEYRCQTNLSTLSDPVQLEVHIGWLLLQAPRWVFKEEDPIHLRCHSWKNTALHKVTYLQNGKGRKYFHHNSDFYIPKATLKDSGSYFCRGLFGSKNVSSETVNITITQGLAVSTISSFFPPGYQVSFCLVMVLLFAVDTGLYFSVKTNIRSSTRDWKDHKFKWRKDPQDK

[11] = molecular target: HisTag hCD16aV receptor (R&D System) (human) (UniProt P08637); assay: BLI (Octet), HisTag hCD16aV on anti-Penta-HIS biosensors, 1/1 model; SD 103.9
[12] = molecular target: human CD64 receptor expressed by Jurkat cells (Jurkat-CD64) (human) (UniProt P12314); assay: flow cytometry competition on Jurkat-CD64 cells, displacement of Rituxan-A488 (25 µg/ml)

Chain of HisTag hCD16aV receptor (R&D System) (human) (P08637 17-208 F176V limits assumed): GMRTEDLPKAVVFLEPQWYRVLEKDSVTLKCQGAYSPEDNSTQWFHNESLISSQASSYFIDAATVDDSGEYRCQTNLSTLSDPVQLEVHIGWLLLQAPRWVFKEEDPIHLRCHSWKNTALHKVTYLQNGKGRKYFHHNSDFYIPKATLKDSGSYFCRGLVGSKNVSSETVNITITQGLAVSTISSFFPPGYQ

Inhibition of the lysis of the red blood cells medited by the anti-D AD1 (IC 25%, nM) [1] [nM]	Inhibition of the lysis of the red blood cells medited by the anti-D AD1 (IC 50%, nM) [1] [nM]	Kd [2] [µM]	IC50 [3] [µM]	IC50 [4] [µM]	IC50 [5] [µM]	IC50 [6] [µM]	Inhibition of the secretion of IL-2 of the Jurkat cells transfected with CD64 (IC 25%, nM) [7] [nM]	Inhibition of the secretion of IL-2 of the Jurkat cells transfected with CD64 (IC 50%, nM) [7] [nM]	Kd [8] [µM]	Kd [9] [µM]	IC50 [10] [µM]	Kd [11] [µM]	IC50 [12] [µM]	Substance
13.5	97	–	–	–	–	–	–	–	–	–	–	–	–	A3A-184AY_CHO (K334N/P352S/A378V/V397M/N434Y), Fc variant produced in CHO cells (from UniProt P0DOX5 223-449)
7.6	56	–	–	–	–	–	–	–	–	–	–	–	–	A3A-184EY_CHO (Y296W/K334N/P352S/A378V/V397M/N434Y), Fc variant produced in CHO cells (from UniProt P0DOX5 223-449)
190	441	–	–	–	–	–	–	–	–	–	–	–	–	Fc MST-HN fragment containing the mutations M252Y/S254T/T256E/H433K/N434F, produced in HEK-293 cells (from UniProt P01857 104-330)
59.6	351	0.654	1.31	0.671	1.36	0.761	1110	< 1950	0.0344	0.438	1.68	0.339	0.88	IVIg (intravenous immunoglobulin, polyvalent immunoglobulins from pools of human plasma donations) (antibody)
